What is called EC50 is the concentration needed to bring the measured effect to its halfway point.

The results in this text go back to publication PMC7948503, “Optimization of a peptide ligand for the adhesion GPCR ADGRG2 provides a potent tool to explore receptor biology” (The Journal of Biological Chemistry, 2020).

Non-standard residues stand in square brackets, D forms with d. Primed or numbered codes have the meaning given here. No end group written: not given here. Phe(4-Me) = Cc1ccc(C[C@H](N)C(=O)O)cc1; FITC′ = not defined here

Common to all, as to test: FRET or BRET; HEK293 cells transfected with Rluc-ADGRG2-ΔGPS-β WT or mutants, stimulated by increasing concentrations of FITC-conjugated VPM-p15; saturation curves fitted with GraphPad; each experiment repeated 6 times
What all share (conditions): one partner purified
Background: Bioluminescence resonance energy transfer reports proximity on the nanometre scale.

Test [1] concerns the target T1, Rluc-ADGRG2-ΔGPS-β Y666A (mouse, UniProt Q8CJ12-3 38-995, Y666A).
T1 construct: ADGRG2 (GPR64), mouse, ADGRG2-ΔGPS-β: the entire ECD removed; source: HEK293, transfected, on cells; not shown: Rluc, N-terminal, kept

Test [2] addresses T2, Rluc-ADGRG2-ΔGPS-β F671A (mouse, UniProt Q8CJ12-3 38-995, F671A).
T2 construct: ADGRG2 (GPR64), mouse, ADGRG2-ΔGPS-β: the entire ECD removed; source: HEK293, transfected, on cells; not shown: Rluc, N-terminal, kept

In test [3] the target is T3, Rluc-ADGRG2-ΔGPS-β L683A (mouse, UniProt Q8CJ12-3 38-995, L683A).
T3 construct: ADGRG2 (GPR64), mouse, ADGRG2-ΔGPS-β: the entire ECD removed; source: HEK293, transfected, on cells; not shown: Rluc, N-terminal, kept
T3 sequence (Q8CJ12 other isoform, or with tags, fused parts or gaps L683A | L683A | L683A L683A): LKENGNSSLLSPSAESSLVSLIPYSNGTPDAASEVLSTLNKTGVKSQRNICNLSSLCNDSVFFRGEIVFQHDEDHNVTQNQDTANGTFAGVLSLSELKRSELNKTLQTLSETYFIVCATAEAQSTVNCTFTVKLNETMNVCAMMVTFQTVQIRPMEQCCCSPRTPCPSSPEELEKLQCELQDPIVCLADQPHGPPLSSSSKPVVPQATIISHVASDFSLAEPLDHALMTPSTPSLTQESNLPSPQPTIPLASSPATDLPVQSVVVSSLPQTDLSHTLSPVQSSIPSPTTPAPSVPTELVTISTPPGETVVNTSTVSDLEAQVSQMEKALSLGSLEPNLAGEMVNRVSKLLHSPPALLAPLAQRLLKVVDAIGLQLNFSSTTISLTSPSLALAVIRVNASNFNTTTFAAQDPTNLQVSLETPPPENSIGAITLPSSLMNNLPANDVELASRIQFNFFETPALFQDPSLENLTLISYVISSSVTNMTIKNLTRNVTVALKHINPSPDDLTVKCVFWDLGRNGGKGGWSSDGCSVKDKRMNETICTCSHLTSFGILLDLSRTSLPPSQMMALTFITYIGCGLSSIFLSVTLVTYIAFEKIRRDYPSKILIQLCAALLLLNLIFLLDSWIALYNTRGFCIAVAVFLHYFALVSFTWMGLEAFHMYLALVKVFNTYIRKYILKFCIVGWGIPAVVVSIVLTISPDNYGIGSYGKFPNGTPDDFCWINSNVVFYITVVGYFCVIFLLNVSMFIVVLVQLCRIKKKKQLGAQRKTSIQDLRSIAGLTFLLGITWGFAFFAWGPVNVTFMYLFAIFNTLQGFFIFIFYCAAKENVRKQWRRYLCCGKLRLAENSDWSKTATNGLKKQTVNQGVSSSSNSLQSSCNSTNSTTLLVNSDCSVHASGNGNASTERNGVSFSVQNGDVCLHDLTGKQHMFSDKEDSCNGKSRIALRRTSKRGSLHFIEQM

Test [4] deals with T4, Rluc-ADGRG2-ΔGPS-β I730A (mouse, UniProt Q8CJ12-3 38-995, I730A).
T4 construct: ADGRG2 (GPR64), mouse, ADGRG2-ΔGPS-β: the entire ECD removed; source: HEK293, transfected, on cells; not shown: Rluc, N-terminal, kept
T4 sequence (Q8CJ12 other isoform, or with tags, fused parts or gaps I730A | I730A | I730A I730A): as the sequence (Q8CJ12 other isoform, or with tags, fused parts or gaps L683A | L683A | L683A L683A) above, with A646L, I693A counted along it

Test [5] has as its target T5, Rluc-ADGRG2-ΔGPS-β I741A (mouse, UniProt Q8CJ12-3 38-995, I741A).
T5 construct: ADGRG2 (GPR64), mouse, ADGRG2-ΔGPS-β: the entire ECD removed; also called F741A (as the methods list it); source: HEK293, transfected, on cells; not shown: Rluc, N-terminal, kept

Test [6] addresses T6, Rluc-ADGRG2-ΔGPS-β F747A (mouse, UniProt Q8CJ12-3 38-995, F747A).
T6 construct: ADGRG2 (GPR64), mouse, ADGRG2-ΔGPS-β: the entire ECD removed; source: HEK293, transfected, on cells; not shown: Rluc, N-terminal, kept

The target in test [7] is T7, Rluc-ADGRG2-ΔGPS-β V774A (mouse, UniProt Q8CJ12-3 38-995, V774A).
T7 construct: ADGRG2 (GPR64), mouse, ADGRG2-ΔGPS-β: the entire ECD removed; source: HEK293, transfected, on cells; not shown: Rluc, N-terminal, kept
T7 sequence (Q8CJ12 other isoform, or with tags, fused parts or gaps V774A | V774A | V774A V774A): as the sequence (Q8CJ12 other isoform, or with tags, fused parts or gaps L683A | L683A | L683A L683A) above, with A646L, V737A counted along it

Test [8] addresses T8, Rluc-ADGRG2-ΔGPS-β T610A (mouse, UniProt Q8CJ12-3 38-995, T610A).
T8 construct: ADGRG2 (GPR64), mouse, ADGRG2-ΔGPS-β: the entire ECD removed; source: HEK293, transfected, on cells; not shown: Rluc, N-terminal, kept

For test [9], the target named is T9, Rluc-ADGRG2-ΔGPS-β F826A (mouse, UniProt Q8CJ12-3 38-995, F826A).
T9 construct: ADGRG2 (GPR64), mouse, ADGRG2-ΔGPS-β: the entire ECD removed; source: HEK293, transfected, on cells; not shown: Rluc, N-terminal, kept
T9 sequence (Q8CJ12 other isoform, or with tags, fused parts or gaps F826A | F826A | F826A F826A): as the sequence (Q8CJ12 other isoform, or with tags, fused parts or gaps L683A | L683A | L683A L683A) above, with A646L, F789A counted along it

The target of test [10] is T10, Rluc-ADGRG2-ΔGPS-β F838A (mouse, UniProt Q8CJ12-3 38-995, F838A).
T10 construct: ADGRG2 (GPR64), mouse, ADGRG2-ΔGPS-β: the entire ECD removed; source: HEK293, transfected, on cells; not shown: Rluc, N-terminal, kept
T10 sequence (Q8CJ12 other isoform, or with tags, fused parts or gaps F838A | F838A | F838A F838A): as the sequence (Q8CJ12 other isoform, or with tags, fused parts or gaps L683A | L683A | L683A L683A) above, with A646L, F801A counted along it

The target of test [11] is T11, Rluc-ADGRG2-ΔGPS-β I844A (mouse, UniProt Q8CJ12-3 38-995, I844A).
T11 construct: ADGRG2 (GPR64), mouse, ADGRG2-ΔGPS-β: the entire ECD removed; source: HEK293, transfected, on cells; not shown: Rluc, N-terminal, kept
T11 sequence (Q8CJ12 other isoform, or with tags, fused parts or gaps I844A | I844A | I844A I844A): as the sequence (Q8CJ12 other isoform, or with tags, fused parts or gaps L683A | L683A | L683A L683A) above, with A646L, I807A counted along it

In test [12] the target is T12, Rluc-ADGRG2-ΔGPS-β F845A (mouse, UniProt Q8CJ12-3 38-995, F845A).
T12 construct: ADGRG2 (GPR64), mouse, ADGRG2-ΔGPS-β: the entire ECD removed; source: HEK293, transfected, on cells; not shown: Rluc, N-terminal, kept
T12 sequence (Q8CJ12 other isoform, or with tags, fused parts or gaps F845A | F845A | F845A F845A): as the sequence (Q8CJ12 other isoform, or with tags, fused parts or gaps L683A | L683A | L683A L683A) above, with A646L, F808A counted along it

For test [13], the target named is T13, Rluc-ADGRG2-ΔGPS-β Y611A (mouse, UniProt Q8CJ12-3 38-995, Y611A).
T13 construct: ADGRG2 (GPR64), mouse, ADGRG2-ΔGPS-β: the entire ECD removed; source: HEK293, transfected, on cells; not shown: Rluc, N-terminal, kept
T13 sequence (Q8CJ12 other isoform, or with tags, fused parts or gaps Y611A | Y611A | Y611A Y611A): as the sequence (Q8CJ12 other isoform, or with tags, fused parts or gaps L683A | L683A | L683A L683A) above, with Y574A, A646L counted along it

For test [14], the target named is T14, Rluc-ADGRG2-ΔGPS-β C614A (mouse, UniProt Q8CJ12-3 38-995, C614A).
T14 construct: ADGRG2 (GPR64), mouse, ADGRG2-ΔGPS-β: the entire ECD removed; source: HEK293, transfected, on cells; not shown: Rluc, N-terminal, kept
T14 sequence (Q8CJ12 other isoform, or with tags, fused parts or gaps C614A | C614A | C614A C614A): as the sequence (Q8CJ12 other isoform, or with tags, fused parts or gaps L683A | L683A | L683A L683A) above, with C577A, A646L counted along it

Test [15] has as its target T15, Rluc-ADGRG2-ΔGPS-β I663A (mouse, UniProt Q8CJ12-3 38-995, I663A).
T15 construct: ADGRG2 (GPR64), mouse, ADGRG2-ΔGPS-β: the entire ECD removed; source: HEK293, transfected, on cells; not shown: Rluc, N-terminal, kept

For test [16], the target named is T16, Rluc-ADGRG2-ΔGPS-β L665A (mouse, UniProt Q8CJ12-3 38-995, L665A).
T16 construct: ADGRG2 (GPR64), mouse, ADGRG2-ΔGPS-β: the entire ECD removed; source: HEK293, transfected, on cells; not shown: Rluc, N-terminal, kept
T16 sequence (Q8CJ12 other isoform, or with tags, fused parts or gaps L665A | L665A | L665A L665A): as the sequence (Q8CJ12 other isoform, or with tags, fused parts or gaps L683A | L683A | L683A L683A) above, with L628A, A646L counted along it

T5 sequence (Q8CJ12 other isoform, or with tags, fused parts or gaps I741A | I741A | I741A I741A): as the sequence (Q8CJ12 other isoform, or with tags, fused parts or gaps L683A | L683A | L683A L683A) above, with A646L, I704A counted along it
T8 sequence (Q8CJ12 other isoform, or with tags, fused parts or gaps T610A | T610A | T610A T610A): as the sequence (Q8CJ12 other isoform, or with tags, fused parts or gaps L683A | L683A | L683A L683A) above, with T573A, A646L counted along it
T6 sequence (Q8CJ12 other isoform, or with tags, fused parts or gaps F747A | F747A | F747A F747A): as the sequence (Q8CJ12 other isoform, or with tags, fused parts or gaps L683A | L683A | L683A L683A) above, with A646L, F710A counted along it
T2 sequence (Q8CJ12 other isoform, or with tags, fused parts or gaps F671A | F671A | F671A F671A): as the sequence (Q8CJ12 other isoform, or with tags, fused parts or gaps L683A | L683A | L683A L683A) above, with F634A, A646L counted along it
T15 sequence (Q8CJ12 other isoform, or with tags, fused parts or gaps I663A | I663A | I663A I663A): as the sequence (Q8CJ12 other isoform, or with tags, fused parts or gaps L683A | L683A | L683A L683A) above, with I626A, A646L counted along it
T1 sequence (Q8CJ12 other isoform, or with tags, fused parts or gaps Y666A | Y666A | Y666A Y666A): as the sequence (Q8CJ12 other isoform, or with tags, fused parts or gaps L683A | L683A | L683A L683A) above, with Y629A, A646L counted along it

B1: FITC-conjugated VPM-p15 (ADGRG2 Stachel peptide p15 T1V/F3Phe(4-Me)) (peptide)
chain: VS[Phe(4-Me)]GILLDLSRTSLP-{FITC′}
On to B1, for which the EC50 stood at 838 nM in [1]; 880 nM in [2]; 1160 nM in test [3]; 1200 nM in test [4]; 669 nM in test [5]; 759 nM in [6]. Besides, the concentration giving a half-maximal response (EC50) in [7] stood at 1080 nM; in [8], 1120 nM; in test [9], 1170 nM; in test [10] it was 767 nM; in [11], 1540 nM; in test [12], 1360 nM. Also, the EC50 in [13] is 712 nM; in [14], 1290 nM; in test [15], 772 nM; in test [16] it was 796 nM.
